Test results as given in paper PMC8545088.

Experiments:
[1] = molecular target: PorZ from P. gingivalis (P. gingivalis W83); assay: other fluorescence titration; microscale fluorescence (initial fluorescence, Monolith NT.115): 20 nM NT-647-labelled PorZ with 1 × 10^5 EU/ml A-LPS from W83, titrated with PorU (3 nM to 100 μM) in PBS, 25°C; 1:1 binding model
[2] = molecular target: PorZ from P. gingivalis (P. gingivalis W83); assay: other fluorescence titration; microscale fluorescence (initial fluorescence, Monolith NT.115): 20 nM NT-647-labelled PorZ titrated with PorU (3 nM to 100 μM) in PBS, 25°C, without A-LPS; 1:1 binding model

B1: PorU sortase from P. gingivalis, hexahistidine-tagged (enzyme)
chain: QRAMGKTADRSLMASGHWVKIRVDASGVYRLTDEQLRANGFSDPSKVGVFGYGGGVLPEDLSRITTDDLPPVPVLRQGNALYFYAVGPVTWFYNPAKTTMEHTVNTYSTHGYYFLSDAAGAPLQMSQYTGGGASAEALIDYYDELMLHEQELYSPKESGRDLYGESFSAVNTRTVKFPLRGNTRSSGELGTVFSYIAKARSAGGGREMSLSANGILIFSDPFSMTSNEVSNSYLAGKKRRLYRSTPMNSLVNELRLDANYSMTGDAVNLDFIEVATQNDLRYDGAPMHIRRFSNLPVLGGESCRFVISEVPESLVVLQANSSLTASLVPVKTVGDKTIEFVAPPKGQDRRTINTFYAVDLSQASAPEILGAVPNQNLHGEEIPDLIIVSTQALLPEADRLATYRREKNGLKVLVVLQEQVFNEFSGGTPDATAYRLFAKMFYDRWKANAPVGETFPMQMLLFGDGAHDNRKVSVAWQKPYLQQTEFLLTFQAVNSTNVNSYVTDDYFGLLDDQPASVNIGWRNYNMAVGRFPVRTPAEARIAVDKTIRYEEDRESGAWRIRACFAADNGDKHATETSRLIDTVKRYAPAIMPVRAFQDVYPHVIENGLHSIPGAKKKMLETLQSGIILLNYAGHGGPAGWSDEHLLTLNDIHNFNYKHMPIWITATCDFANYDSQTTSAGEEVFLHEKSGTPIMFSTTRVVYNTQNEKINGFMLRRMFEKAKDGRYRTMGEIIRSAKQGMLSTVFPDSINQLSFFLMGDPSVRMNLPTHKVQLTAINGQDPEGQYGTIMLKSLERVALKGKVTDEKGTFDETFSGKVFLTVFDGRKKMTALEEEGNDLSLVYYDYPNVMYAGIAEVKDGLFETSFIVPKDVNYSEHEGRINLYAYNESTKAEAMGVDFSIRVQPGIPDEVTEDNTPPEIISCFLNDSTFRSGDEVNPTPLFMAEVFDLNGINITGSGVGHDITLCIDGRADLTYNLNAYFTSSATDAGVGTILFMIPALAEGDHTARLTVWDIFNNAVHHDFSFRVVDGIAPDVADVILFPNPVRESATFRIFHNRPGSDLNVVVEIYDFTGRLVNSLPVKTYSSSYGEPIEIKWDLTSKYGVKIGNGFYLYRCVVNSPGGQTASMAKKMIVVAQ
Kd [1]: 700 nM | Kd [2]: 3400 nM
